# Assay results taken from patent US20200317768A1 (published 2020).
# Changes are numbered by the printed parent chain.
# T1: cynomolgus monkey FcγRIIa2 extracellular domain, C-terminal His-tag (cynomolgus monkey)
# T1 construct: also called cyno FcγRIIa2; cynoFcgRIIa2; not shown: His-tag added to C-terminus
# T1 chain: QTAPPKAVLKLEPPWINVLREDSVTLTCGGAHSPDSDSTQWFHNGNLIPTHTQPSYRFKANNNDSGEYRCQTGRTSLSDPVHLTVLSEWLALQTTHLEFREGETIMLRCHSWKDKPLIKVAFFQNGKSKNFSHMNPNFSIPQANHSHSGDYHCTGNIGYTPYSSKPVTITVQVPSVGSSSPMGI
# T2: human FcγRIIaH extracellular domain, C-terminal His-tag (human, UniProt P12318 34-217)
# T2 construct: also called human FcγRIIa (type H); FcgRIIaH; not shown: His-tag added to C-terminus
# T2 sequence: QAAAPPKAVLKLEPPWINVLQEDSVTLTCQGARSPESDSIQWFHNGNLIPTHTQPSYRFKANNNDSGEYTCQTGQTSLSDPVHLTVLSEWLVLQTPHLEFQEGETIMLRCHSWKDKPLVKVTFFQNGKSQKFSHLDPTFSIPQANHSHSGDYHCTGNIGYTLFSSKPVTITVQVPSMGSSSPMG
# T3: human FcγRIIb extracellular domain, C-terminal His-tag (human, UniProt P31994 43-217)
# T3 construct: also called FcgRIIb (human); not shown: His-tag added to C-terminus
# T3 sequence: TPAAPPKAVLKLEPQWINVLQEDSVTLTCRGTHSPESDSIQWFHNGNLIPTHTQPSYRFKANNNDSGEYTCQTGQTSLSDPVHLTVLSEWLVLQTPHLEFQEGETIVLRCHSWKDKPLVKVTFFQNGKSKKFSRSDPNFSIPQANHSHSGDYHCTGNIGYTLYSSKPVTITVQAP
# T4: cynomolgus monkey FcγRIIb extracellular domain, C-terminal His-tag (cynomolgus monkey)
# T4 construct: also called cyno FcγRIIb; cynoFcγRIIb; not shown: His-tag added to C-terminus
# T4 chain: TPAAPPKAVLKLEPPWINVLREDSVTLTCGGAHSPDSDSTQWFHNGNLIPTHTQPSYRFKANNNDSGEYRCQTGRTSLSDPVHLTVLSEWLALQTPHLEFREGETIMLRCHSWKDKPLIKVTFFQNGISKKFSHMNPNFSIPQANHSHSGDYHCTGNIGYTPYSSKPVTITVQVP
# T5: human FcγRIIaR extracellular domain, C-terminal His-tag (human, UniProt P12318 34-217)
# T5 construct: also called human FcγRIIa (type R); FcgRIIaR; not shown: His-tag added to C-terminus
# T5 chain: T2 sequence with H134R
# T6: cynomolgus monkey FcγRIIa3 extracellular domain, C-terminal His-tag (cynomolgus monkey)
# T6 construct: also called cyno FcγRIIa3; cynoFcgRIIa3; not shown: His-tag added to C-terminus
# T6 chain: T1 chain with K127I, N130K, H133P, Q142R
# B1: M103205H795-MY227/M103202L889-SK1 (antibody, human IgG1, kappa)
# heavy: QVTLKESGPVLVKPTETLTLTCTVSGIDLSHDDISWVRQAPGKGLEWVGIISYAGSTYYASWAKGRLTISKDTSKNQVVLTMTNMDPVDTATYYCARGVPAYSHGGDLWGQGTLVTVSSASTKGPSVFPLAPSSKSTSGGTAALGCLVKDYFPEPVTVSWNSGALTSGVHTFPAVLQSSGLYSLSSVVTVPSSSLGTQTYICNVNHKPSNTKVDKKVEPKSCDKTHTCPPCPAPELLGYPSVFLFPPKPKDTLMISRTPEVTCVVVDVSDEDPEVKFNWYVDGVEVHNAKTKPREEQYNSTYRVVSVLTVLHQDWLNGKEYKCKVSNKALPKPIEKTISKAKGQPREPQVYTLPPSREEMTKNQVSLTCLVKGFYPSDIAVEWESNGQPENNYKTTPKVLDSDGSFFLYSKLTVDKSRWQQGNVFSCSVMHEALHNHYTQKSLSLSP
# light: DIVMTQSPATLSLSPGERATLSCTSSQSVYHANWLSWFQQKPGQPPKLLIYWASTLAYGVPSRFSGSGSGTDFTLTISSLQPEDAATYYCAGGYGGGRYAFGQGTKVEIKRTVAAPSVFIFPPSDEQLKSGTASVVCLLNNFYPREAKVQWKVDNALQSGNSQESVTEQDSKDSTYSLSSTLTLSKADYEKHKVYACEVTHQGLSSPVTKSFNRGEC
# B2: M103205H795-MY269/M103202L889-SK1 (antibody, human IgG1, kappa)
# heavy: B1 heavy with G238M, Y239G
# light: B1 light
# B3: M103205H795-MY272/M103202L889-SK1 (antibody, human IgG1, kappa)
# heavy: B1 heavy with G238Q, Y239G
# light: B1 light
# B4: M103205H795-MY229/M103202L889-SK1 (antibody, human IgG1, kappa)
# heavy: B1 heavy with Q297L
# light: B1 light
# B5: M103205H795-MY228/M103202L889-SK1 (antibody, human IgG1, kappa)
# heavy: B1 heavy with Q297L, K398P
# light: B1 light
# B6: M103205H795-MY271/M103202L889-SK1 (antibody, human IgG1, kappa)
# heavy: B1 heavy with G238V, Y239G
# light: B1 light
# B7: M103205H795-MY242/M103202L889-SK1 (antibody, human IgG1, kappa)
# heavy: B1 heavy with Y239G, P240I
# light: B1 light
# B8: M103205H795-MY270/M103202L889-SK1 (antibody, human IgG1, kappa)
# heavy: B1 heavy with G238H, Y239G
# light: B1 light
# Columns and labels:
# [1] = molecular target: T7, human FcγRIIIaV extracellular domain, C-terminal His-tag (human, UniProt P08637 17-208); experiment: SPR (Biacore), KD of SG1 / KD of variant;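 note: relative to parent M103205H795-SG1 carrying the SG1 human heavy chain constant region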
# T7 construct: also called FcgRIIIaV; not shown: His-tag added to C-terminus
# Procedure: (§1) The kinetic analysis of interactions between these antibodies and FcγR was carried out using BIACORE® T200 or BIACORE® 4000 (GE Healthcare). HBS-EP+ (GE Healthcare) was used as the running buffer, and the measurement temperature was set to 25° C. A chip produced by immobilizing Protein A. Protein A/G or mouse anti-human IgG kappa light chain (BD Biosciences) onto a Series S Sensor Chip CM4 or CM5 (GE Healthcare) by the amine-coupling method was used. […] After the measurement, the antibody captured on the chip was washed off by allowing reaction with 10 mM glycine-HCl, pH1.5 and 25 mM NaOH so that the chip was regenerated and used repeatedly. The sensorgrams obtained as measurement results were analyzed by the 1:1 Langmuir binding model using the BIACORE® Evaluation Software to calculate the binding rate constant ka (L/mol/s) and dissociation rate constant kd (l/s), and the dissociation constant KD (mol/L) was calculated from these values. […] Regarding such interactions, KD values were calculated using the following 1:1 binding model described in BIACORE® T100 Software Handbook BR1006-48 Edition AE.
# (§2) The behavior of interacting molecules according to the 1:1 binding model on BIACORE® can be described by Equation 1: Req=C·R max/(KD+C)+RI, wherein, Req is a plot of steady-state binding levels to analyte concentration. C is concentration, RI is bulk refractive index contribution in the sample, and Rmax is analyte binding capacity of the surface. When this equation is rearranged, KD can be expressed as Equation 2: KD=C·Rmax/(Req−RI)−C. KD can be calculated by substituting the values of Rmax, RI, and C into Equation 1 or Equation 2. From the current measurement conditions, RI=0, C=2 μmol/L can be used.
# [2] = molecular target: T1, cynomolgus monkey FcγRIIa2 …; experiment: SPR (Biacore), KD of SG1 / KD of variant;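 note: relative to parent M103205H795-SG1 carrying the SG1 human heavy chain constant region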
# Procedure: as §1, §2
# [3] = molecular target: T2, human FcγRIIaH extracellular domain, …; experiment: SPR (Biacore), KD of SG1 / KD of variant;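 note: relative to parent M103205H795-SG1 carrying the SG1 human heavy chain constant region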
# Procedure: as §1, §2
# [4] = molecular target: T3, human FcγRIIb extracellular domain, …; experiment: SPR (Biacore), KD of SG1 / KD of variant;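 note: relative to parent M103205H795-SG1 carrying the SG1 human heavy chain constant region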
# Procedure: as §1, §2
# [5] = molecular target: T4, cynomolgus monkey FcγRIIb extracellular …; experiment: SPR (Biacore), KD of SG1 / KD of variant
# Procedure: as §1, §2
# [6] = molecular target: T8, cynomolgus monkey FcγRIIIaS extracellular domain, C-terminal His-tag (cynomolgus monkey, UniProt A3RFZ7 21-206 (rhesus entry)); experiment: SPR (Biacore), KD of SG1 / KD of variant
# T8 construct: also called cyno FcγRIIIaS; cynoFcγRIIIaS; not shown: His-tag added to C-terminus
# Procedure: as §1, §2
# [7] = molecular target: T5, human FcγRIIaR extracellular domain, …; experiment: SPR (Biacore), KD of SG1 / KD of variant
# Procedure: as §1, §2
# [8] = molecular target: T6, cynomolgus monkey FcγRIIa3 …; experiment: SPR (Biacore), KD of SG1 / KD of variant
# Procedure: as §1, §2
# [9] = molecular target: T2, human FcγRIIaH extracellular domain, …; experiment: SPR (Biacore), antibody captured, FcgR analyte, 25 C
# T8 sequence (A3RFZ7 21-206): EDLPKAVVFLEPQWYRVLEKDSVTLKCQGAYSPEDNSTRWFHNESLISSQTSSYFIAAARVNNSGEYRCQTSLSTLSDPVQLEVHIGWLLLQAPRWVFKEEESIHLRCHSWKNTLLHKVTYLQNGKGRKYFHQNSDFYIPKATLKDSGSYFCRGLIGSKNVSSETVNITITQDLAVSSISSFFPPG
# T7 sequence (P08637 17-208 F176V): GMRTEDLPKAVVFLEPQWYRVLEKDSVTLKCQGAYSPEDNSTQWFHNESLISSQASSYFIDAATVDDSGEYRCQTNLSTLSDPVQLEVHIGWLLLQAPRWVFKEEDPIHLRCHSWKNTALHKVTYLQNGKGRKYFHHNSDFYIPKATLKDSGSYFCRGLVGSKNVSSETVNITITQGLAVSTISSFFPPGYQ
Binder,KD fold (SG1 = 1) [1] [fold],KD fold (SG1 = 1) [2] [fold],KD fold (SG1 = 1) [3] [fold],KD fold (SG1 = 1) [4] [fold],KD fold (SG1 = 1) [5] [fold],KD fold (SG1 = 1) [6] [fold],KD fold (SG1 = 1) [7] [fold],KD fold (SG1 = 1) [8] [fold],Kd [9] [nM]
B1,0.04,2,0.5,35.4,3.5,0.09,17.7,6.3,1300
B2,0.74,2,2.3,2.2,2.8,1.64,1.5,2.7,230
B3,0.93,2.7,7.5,3.5,4.2,1.24,4.4,2.7,92
B4,0.02,2.3,0.7,30.7,3.8,0.09,13,8.5,980
B5,0.02,1,0.3,15.3,1.6,0.04,6.5,4.7,2200
B6,0.35,7.3,15.7,2.2,9.5,0.41,4.8,3.5,44
B7,0.25,1.2,0.8,2.4,1.6,0.68,1.7,2.9,820
B8,0.22,2.4,9.5,1.3,3.4,0.33,3.1,6.5,73
